For one test, the target named is wt-CFTR (Homo sapiens, UniProt P13569). The test is described as follows: CFTR pull-down from solubilized BHK-21 cells with immunoblot. The test is classed as binding. Details: expressed in transfected cells. The conditions noted are these: immunoblot with mAb 596. The method, then:
Human wt-CFTR was extracted from BHK-21 cells pellet by solubilization with 1% DMNG in PBS with proteases inhibitors for 1 h at 4° C. The cells debris were removed by centrifugation (16,000×g for 30 min at 4° C.). Supernatant was diluted 10 times in PBS with proteases inhibitors plus 10 mM imidazole and incubated at least for 30 min on HisPur Ni-NTA Resin (Thermo Scientific) pre-loaded with nanobodies. Resin was washed with 40 column volumes of PBS with 300 mM NaCl. Nanobodies were eluted with 200 mM imidazole in PBS. Presence of CFTR in each sample was detected by SDS-PAGE and immuno-blotting.
Cell extracts were separated by SDS-PAGE on 7.5% polyacrylamide gel and transferred to nitrocellulose membrane (Bio-Rad) for immunodetection. After blocking for 1 h with 5% bovine serum albumin (BSA) in Tris-buffered saline added 0.05% Tween-20 (TBST), CFTR was detected using monoclonal antibody mAb 596, IgG2b (CFTR Antibody Distribution Program, dilution 1:46) for 1 h in blocking buffer. Blot was washed 3 times 5 min and incubated with anti-mouse-HRP antibody (Millipore, catalogue number: AP308P, 0.2 μg/ml) for 1 h in TBST. Membrane was washed 3 times for 5 min. CFTR was visualized by chemiluminescence using Luminata Forte Western HRP Substrate (Millipore) and detected with ImageQuant 400 (GE Healthcare).

The target of another test is T1, F508del-CFTR (Homo sapiens, UniProt P13569, DEL508-508).
T1 construct: expressed in transfected cells
T1 sequence (P13569 with tags, fused parts or gaps DEL508-508): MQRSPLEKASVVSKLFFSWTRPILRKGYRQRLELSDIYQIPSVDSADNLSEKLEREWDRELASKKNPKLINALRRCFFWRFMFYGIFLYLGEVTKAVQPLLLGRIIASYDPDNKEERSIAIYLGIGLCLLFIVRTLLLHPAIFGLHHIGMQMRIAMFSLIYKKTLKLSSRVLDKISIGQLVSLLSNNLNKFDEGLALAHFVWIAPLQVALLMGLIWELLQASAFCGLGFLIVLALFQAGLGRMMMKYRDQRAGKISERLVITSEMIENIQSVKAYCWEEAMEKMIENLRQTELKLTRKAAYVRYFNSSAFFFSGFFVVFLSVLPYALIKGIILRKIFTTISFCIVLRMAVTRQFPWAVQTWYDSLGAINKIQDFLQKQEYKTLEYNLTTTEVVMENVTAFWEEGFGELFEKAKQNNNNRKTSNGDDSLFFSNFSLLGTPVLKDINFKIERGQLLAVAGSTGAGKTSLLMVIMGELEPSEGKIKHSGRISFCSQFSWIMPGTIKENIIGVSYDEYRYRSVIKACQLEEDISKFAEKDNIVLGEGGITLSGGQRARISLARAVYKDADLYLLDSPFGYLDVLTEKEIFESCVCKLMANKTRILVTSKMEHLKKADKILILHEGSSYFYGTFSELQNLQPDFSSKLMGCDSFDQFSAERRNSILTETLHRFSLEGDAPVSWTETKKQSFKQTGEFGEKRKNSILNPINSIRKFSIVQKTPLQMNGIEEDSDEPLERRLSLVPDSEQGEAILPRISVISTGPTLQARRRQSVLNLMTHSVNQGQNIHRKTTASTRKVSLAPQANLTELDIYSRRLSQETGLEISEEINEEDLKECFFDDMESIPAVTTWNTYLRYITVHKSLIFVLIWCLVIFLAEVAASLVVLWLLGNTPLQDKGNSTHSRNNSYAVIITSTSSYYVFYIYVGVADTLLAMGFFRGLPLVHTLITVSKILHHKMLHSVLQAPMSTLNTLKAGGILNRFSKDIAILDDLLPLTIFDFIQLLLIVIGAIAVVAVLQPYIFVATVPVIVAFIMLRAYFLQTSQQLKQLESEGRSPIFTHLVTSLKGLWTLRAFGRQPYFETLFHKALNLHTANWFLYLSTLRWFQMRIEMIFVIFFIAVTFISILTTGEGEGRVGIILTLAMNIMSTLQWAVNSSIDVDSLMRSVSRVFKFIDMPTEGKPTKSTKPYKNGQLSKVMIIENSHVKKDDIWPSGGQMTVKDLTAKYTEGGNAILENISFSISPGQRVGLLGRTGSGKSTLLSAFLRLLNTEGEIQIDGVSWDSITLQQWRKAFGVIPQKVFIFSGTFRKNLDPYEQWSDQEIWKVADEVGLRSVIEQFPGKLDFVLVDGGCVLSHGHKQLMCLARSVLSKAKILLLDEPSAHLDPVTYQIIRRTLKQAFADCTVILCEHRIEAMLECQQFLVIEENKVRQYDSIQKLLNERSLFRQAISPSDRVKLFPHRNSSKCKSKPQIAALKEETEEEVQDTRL
Description: HS-YFP quenching assay. The test is classed as cell-based. The conditions noted are these: HEK293T F508del-CFTR + HS-YFP, 10 μM forskolin and 3 μM VX770, 3 μM VX809 or DMSO 24 h. The protocol:
To study CFTR function in cells, we used a HS-YFP quenching assay where changes in fluorescence of halide sensitive YFP (HS-YFP) reflect halide entrance through CFTR. HEK293T cells stably expressing F508del-CFTR (or WT CFTR as a control) and a modified YFP were transiently transfected with pcDNA3-based plasmid coding either for a stabilizing nanobody (T2a, D12 or T27) or a control nanobody (not binding F508del-CFTR) and incubated with 3 μM VX809 corrector or 0.06% DMSO for 24 h. Before addition of iodide, cells are stimulated by 10 μM forskolin and 3 μM VX770 potentiator for 20 mins and YFP fluorescence signal is measured (excitation 485, emission 535 nm) over a period of 4 seconds.
The assay was performed as described previously in (Ensinck, et al. 2020) with minor modifications. Briefly, cells stably expressing wt- or F508del-CFTR and a halide sensitive yellow fluorescent protein (HS-YFP) (Galietta, et al. 2001) were transfected with plasmids encoding the nanobodies using PEI and immediately plated into black, clear-bottomed 96-well plates coated with Poly-D-Lysine. After overnight incubation VX-809 (3 μM) or DMSO was added for 24 h. Next, the cells were washed with DPBS and potentiator VX-770 (3 μM) and/or CFTR activator forskolin (#F3917, Sigma-Aldrich, 10 μM) was added for 20 min. Fluorescence was measured after which a I^− buffer (137 mM Nal, 2.7 mM KI, 1.7 mM KH2PO4, 10.1 mM Na2HPO4, 5 mM D-glucose) was injected into the well and fluorescence monitored for another 4 s. YFP quenching was determined at the end of the interval as F/F0, and CFTR function as 1-(F/F0).

In a further test the target is 2PT-NBD1-RE. The test is described as follows: NBD1 ELISA dose-response, binding to 2PT-NBD1-RE. To be noted: for binding to 2PT-NBD1-RE: construct containing the regulatory extension. Set-up: species or system human. From the text: Human ΔRI-NBD1 (residues 387-646, A405-436; SEQ ID NO:59) construct was obtained from Arizona State University Plasmid Repository (clone id: 287374), 2PT-NBD1 mutants (residues 387-646 containing the mutations S492P, A534P, I539T; SEQ ID NO:58), 2PT-NBD1-RE (2PT-NBD1 with residues 387-678) were constructed using WT-NBD1 construct from ASU (clone id: 287401). Mutations were introduced by PCR using PfuUltra high-fidelity DNA polymerase from Agilent (catalogue number: 600382) and sequences were confirmed by automated DNA sequencing (UNC-CH Genome Analysis Facility). Proteins were expressed as N-terminal, His6-SUMO fusion proteins in Escherichia coli (BL21(DE3) pLysS cells, Millipore) as described in [5,11] with the following modifications. Cells were lysed using a French press and recombinant proteins were purified by nickel ion affinity chromatography (HisTrap HP, 1 ml—GE Healthcare). The His6-SUMO tag was removed using Ulp1 protease at 1/100 weight/weight ratio during 20 min on ice. […] Protein concentration was determined using Coomassie Plus (Bradford) Assay Kit (Thermo Scientific).
Sequence of 2PT-NBD1-RE (P13569 387-678 S492P/A534P/I539T): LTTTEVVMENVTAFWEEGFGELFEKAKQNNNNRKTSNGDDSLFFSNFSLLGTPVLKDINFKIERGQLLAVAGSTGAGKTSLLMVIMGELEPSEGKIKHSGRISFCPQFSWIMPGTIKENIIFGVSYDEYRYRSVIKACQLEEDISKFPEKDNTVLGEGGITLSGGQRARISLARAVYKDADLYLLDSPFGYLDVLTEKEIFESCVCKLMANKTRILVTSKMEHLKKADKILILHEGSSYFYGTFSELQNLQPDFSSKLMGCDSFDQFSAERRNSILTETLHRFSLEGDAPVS
For dose-response assays, Nunc MaxiSorp 96-well plates (ThermoScientific), were coated with 5 μg/ml NeutrAvidin Biotin-Binding protein (ThermoScientific) overnight at 4° C. and blocked 2 h at room temperature (RT) with 2% milk in phosphate-buffered saline (PBS). Each new reagent addition was preceded by three washes with 200 μl of NBD1 buffer (20 mM HEPES pH 7.5, 150 mM NaCl, and 10% (w/v) glycerol, 10% (w/v) ethylene glycol, 2 mM ATP, 3 mM MgCl2). Then, biotinylated purified NBD1 proteins at 5 μg/ml were immobilized 30 min at RT followed by 1 h RT incubation with 100 μl various concentrations (0-20 μg/ml) of purified nanobodies. Signal detection was followed using His-tag specific antibody (Invitrogen, catalogue number: MA1-135, 1:3000 dilution) to detect the nanobodies and secondary antibody anti-mouse coupled to horse radish peroxidase (HRP) (Millipore, catalogue number: AP308P, 1:5000 dilution). 50 μl of 1-Step UltraTMB-ELISA (ThermoScientific) was used as a substrate for the peroxidase and intensity of the reaction was proportional to absorbance measured at 450 nm with SynergyMx (BioTek) after addition of 50 μl H2SO4 at 1M.

These results are taken from patent US20220289837A1, “Cystic Fibrosis Transmembrane Conductance Regulator Stabilizing Agents” (VIB VZW, priority 2019, published 2022).

Sequence of wt-CFTR (P13569 whole entry): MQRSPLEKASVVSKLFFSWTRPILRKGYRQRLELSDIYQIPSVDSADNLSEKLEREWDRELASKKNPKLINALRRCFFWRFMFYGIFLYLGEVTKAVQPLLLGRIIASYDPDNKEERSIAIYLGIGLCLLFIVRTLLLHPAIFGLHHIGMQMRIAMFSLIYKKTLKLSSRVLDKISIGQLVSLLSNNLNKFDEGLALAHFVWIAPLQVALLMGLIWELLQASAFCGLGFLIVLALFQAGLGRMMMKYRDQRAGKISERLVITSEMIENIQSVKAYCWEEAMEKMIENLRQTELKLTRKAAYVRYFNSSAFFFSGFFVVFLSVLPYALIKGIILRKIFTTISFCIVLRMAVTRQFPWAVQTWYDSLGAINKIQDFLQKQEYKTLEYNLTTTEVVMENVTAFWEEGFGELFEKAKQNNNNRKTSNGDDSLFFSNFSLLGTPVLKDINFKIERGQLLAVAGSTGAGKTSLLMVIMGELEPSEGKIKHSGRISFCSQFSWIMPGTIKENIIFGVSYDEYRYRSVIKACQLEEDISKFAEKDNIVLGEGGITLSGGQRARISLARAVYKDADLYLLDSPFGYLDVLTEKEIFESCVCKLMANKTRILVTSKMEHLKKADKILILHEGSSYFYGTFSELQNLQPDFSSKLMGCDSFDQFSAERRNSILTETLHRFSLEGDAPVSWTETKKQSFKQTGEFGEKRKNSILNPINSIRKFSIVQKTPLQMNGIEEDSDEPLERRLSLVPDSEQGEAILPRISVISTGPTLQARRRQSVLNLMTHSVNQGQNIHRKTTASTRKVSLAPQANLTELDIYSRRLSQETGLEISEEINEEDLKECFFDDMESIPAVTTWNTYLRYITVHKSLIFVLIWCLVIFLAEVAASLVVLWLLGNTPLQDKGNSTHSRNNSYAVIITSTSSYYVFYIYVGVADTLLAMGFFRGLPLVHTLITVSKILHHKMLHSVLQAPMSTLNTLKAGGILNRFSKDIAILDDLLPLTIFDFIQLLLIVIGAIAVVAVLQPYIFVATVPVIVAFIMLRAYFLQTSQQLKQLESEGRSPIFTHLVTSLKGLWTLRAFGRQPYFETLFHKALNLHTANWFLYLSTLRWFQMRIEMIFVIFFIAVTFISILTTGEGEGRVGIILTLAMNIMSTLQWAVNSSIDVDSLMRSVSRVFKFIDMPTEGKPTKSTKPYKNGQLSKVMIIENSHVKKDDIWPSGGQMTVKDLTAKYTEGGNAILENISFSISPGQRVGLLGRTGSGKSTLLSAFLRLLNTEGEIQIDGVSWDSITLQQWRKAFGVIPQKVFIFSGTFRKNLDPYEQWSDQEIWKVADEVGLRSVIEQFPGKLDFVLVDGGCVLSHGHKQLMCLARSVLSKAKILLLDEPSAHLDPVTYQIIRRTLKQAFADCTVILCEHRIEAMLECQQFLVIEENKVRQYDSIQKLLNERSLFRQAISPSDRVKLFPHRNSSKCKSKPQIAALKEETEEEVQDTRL

B1: T8: nanobody, SEQ ID NO:7, binds epitope 2 including F508, stabilizes WT CFTR but not F508del (protein)
VHH: QVQLQESGGGLVQPGGSLRLSCAASGSTSSINAMGWYRQAPGKQREPVAISSSGGDTRYAEPVKGRFTISRDNAQNKVYLQMNSLKPEDTAVYYCWLNWGRTSVNSWGQGTQVTVSS
modifications: T8 Nanobody amino acid sequence
On to B1, for which the “pull-down of cellular CFTR, electrophoresis pattern (mature band C)” value (from here on “pull-down of cellular CFTR”) with wt-CFTR was “identical electrophoresis pattern as observed in whole cell lysate”.

B2: T2a: NBD1-specific CFTR-stabilizing nanobody, SEQ ID NO:3, binds epitope 1 (protein)
VHH: QVQLQESGGGLVQAGGSLRLSCAASGSIFRIDAMGWYRQAPGKQRELVAHSTSGGSTDYADSVKGRFTISRDNAKNTVYLQMNSLKPEDTAVYYCNADVRTRWYASNNYWGQGTQVTVSS
modifications: T2a Nanobody amino acid sequence
Take B2: in the test with wt-CFTR, the “pull-down of cellular CFTR” value is recorded as “identical electrophoresis pattern as observed in whole cell lysate”. Besides, the “quenching of YFP (CFTR function)” value in the test with F508del-CFTR is recorded as “quenching of YFP”. Moreover, on 2PT-NBD1-RE, the “apparent EC50 on 2PT-NBD1-RE compared to 2PT-NBD1” value is “decrease in apparent EC50” and the “binding to 2PT-NBD1-RE” value is “high-affinity binding”.

B3: G3a: non-stabilizing nanobody, SEQ ID NO:50, recognizes the structurally diverse region of NBD1 (protein)
VHH: QVQLQESGGGLVQAGGSLRLSCTASGRAFSWYVMGWFRQAPGKEREFVATVSGNGSRRDYADSVKGRFTISRDNAKNTVYLQMNSLKPEDTAVYYCAASSTYYYTDPEKYDYWGQGTQVTVSS
modifications: G3a Nanobody
For B3, in the test with wt-CFTR, the “pull-down of cellular CFTR” value was “identical electrophoresis pattern as observed in whole cell lysate”.

B4: T27: NBD1-specific CFTR-stabilizing nanobody, SEQ ID NO:4, binds epitope 1 (protein)
VHH: QVQLQESGGGLEQPGGSLRLSCATSGVIFGINAMGWYRQAPGKQRELVATFTSGGSTNYADFVEGRFTISRDNAKNTVYLQMNGLRPEDTAVYYCHATVVVSRYGLTYDYWGQGTQVTVSS
modifications: T27 Nanobody amino acid sequence
On to B4, for which, in the test with wt-CFTR, the “pull-down of cellular CFTR” value is given as “also observed”. Moreover, the “quenching of YFP (CFTR function)” value with F508del-CFTR is on record as “quenching of YFP”. On 2PT-NBD1-RE, the “apparent EC50 on 2PT-NBD1-RE compared to 2PT-NBD1” value is “decrease in apparent EC50” and the “binding to 2PT-NBD1-RE” value is reported as “high-affinity binding”.

B5: D12: NBD1-specific CFTR-stabilizing nanobody, SEQ ID NO:2, binds epitope 1 (protein)
VHH: QVQLQESGGGLVQAGSSLRLACAATGSIRSINNMGWYRQAPGKQRGMVAIITRVGNTDYADSVKGRFTISRDNAKNTVYLQMNSLKPEDTATYYCHAEITEQSRPFYLTDDYWGQGTQVTVSS
modifications: D12 Nanobody amino acid sequence
On to B5, for which, in the test with wt-CFTR, the “pull-down of cellular CFTR” value is on record as “also observed”. Further, the “quenching of YFP (CFTR function)” value in the test with F508del-CFTR is “quenching of YFP”. Further, on 2PT-NBD1-RE, the “apparent EC50 on 2PT-NBD1-RE compared to 2PT-NBD1” value is on record as “decrease in apparent EC50” and the “binding to 2PT-NBD1-RE” value is “high-affinity binding”.
